Series [1] concerns T1, dCas12j-8 D527R D527R;D369A;E567A;D658A (bacteriophage (metagenome)).
T1 sequence: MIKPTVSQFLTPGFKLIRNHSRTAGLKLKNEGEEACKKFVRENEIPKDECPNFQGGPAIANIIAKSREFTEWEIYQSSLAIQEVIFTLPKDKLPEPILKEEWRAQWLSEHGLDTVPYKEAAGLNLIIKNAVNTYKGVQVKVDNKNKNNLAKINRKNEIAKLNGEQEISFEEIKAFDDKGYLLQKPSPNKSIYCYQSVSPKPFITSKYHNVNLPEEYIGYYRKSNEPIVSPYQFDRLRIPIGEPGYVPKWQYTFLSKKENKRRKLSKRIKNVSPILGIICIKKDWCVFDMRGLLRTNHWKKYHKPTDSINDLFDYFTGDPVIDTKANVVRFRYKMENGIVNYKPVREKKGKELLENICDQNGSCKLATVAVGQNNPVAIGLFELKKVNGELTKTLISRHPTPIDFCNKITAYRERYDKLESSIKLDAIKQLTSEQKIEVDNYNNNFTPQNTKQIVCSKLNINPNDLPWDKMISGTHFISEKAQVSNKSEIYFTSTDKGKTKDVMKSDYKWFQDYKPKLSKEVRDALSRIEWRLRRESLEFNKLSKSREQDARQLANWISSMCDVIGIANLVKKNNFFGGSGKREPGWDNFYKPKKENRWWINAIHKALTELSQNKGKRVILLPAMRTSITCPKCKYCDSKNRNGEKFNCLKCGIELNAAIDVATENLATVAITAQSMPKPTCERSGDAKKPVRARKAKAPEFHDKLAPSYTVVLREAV
To be noted: HEK293T cells; panel 1c (compare within a panel only); scale: mean GFP / mean GFP of wild type, printed, no background subtraction.

Series [2] relates to T2, dCas12j-8 E258R+D313R+E547R E258R;D313R;E547R;D369A;E567A;D658A (bacteriophage (metagenome)).
T2 sequence: T1 sequence with E258R, D313R, R527D, E547R
Conditions: HEK293T cells; panel 1e (compare within a panel only); scale: mean GFP / mean GFP of wild type, printed, no background subtraction.

Series [3] relates to T3, dCas12j-8 E258R+D527R E258R;D527R;D369A;E567A;D658A (bacteriophage (metagenome)).
T3 sequence: T1 sequence with E258R
Conditions: HEK293T cells; panel 1d (compare within a panel only); scale: mean GFP / mean GFP of wild type, printed, no background subtraction.

Changes are numbered by the printed parent chain.

Take “CUUUCAAGACUAAUAGAUUGCUCCUUACGAGGAGACACUCCCUAUCAGUGAUAGAG / TTNACTCCCTATCAGTGATAGAG / CTCTATCACTGATAGGGAGTNAA [TetO]”: the binding signal in series [1] came out at 1.56; in series [2], 3.99; in series [3], 2.83.

The values above are taken from paper PMC12412624, “Engineered Cas12j‐8 is a Versatile Platform for Multiplexed Genome Modulation in Mammalian Cells”.
